According to the supplement of paper PMC9170038:

System: MS2 coat protein
Test: apparent KD of MS2 coat protein; designed switch direction (-1 OFF switch, 1 ON switch): 1; higher = weaker reporter binding
Outline: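 SNAP-549-labelled MS2 coat protein was titrated, doubling from 0.7 or 1.5 nM to 3 µM, over designed RNA switches transcribed on Illumina chips by stalled E. coli RNA polymerase. Runs were done without input, with 200 uM small-molecule ligand, or with an oligonucleotide input. Apparent KD is the per-design median over clusters of curve-fitted normalised fluorescence.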

[1] = Eterna round: R95, input ligand: FMN 200 uM
[2] = Eterna round: R95, input ligand: microRNA oligo, concentration not stated
[3] = Eterna round: R95, input ligand: none
[4] = input ligand: microRNA oligo, concentration not stated

| Sequence | apparent KD of MS2 coat protein [1] [nM] | apparent KD of MS2 coat protein [2] [nM] | apparent KD of MS2 coat protein [3] [nM] | apparent KD of MS2 coat protein (input ligand: FMN 200 uM) [nM] | apparent KD of MS2 coat protein [4] [nM] | apparent KD of MS2 coat protein (input ligand: none) [nM] |
| --- | --- | --- | --- | --- | --- | --- |
| AGCUAUCGAAAACGAUAGCAAAAGCAUGUACAUGAGGAUCACCCAUGUUAUGUACAAGCUUUUUGCUCGUCUUAAAA [Zipper 23 - 11] (puzzle: Sensor for hsa-mir-208a) | 326 | 12 | 308 |  |  |  |
| GCCCGUAGCCACAUGAGGAUCACCCAUGUGCAGUUGUGAUCCGAGGAUAUUGCUAUUUGAGAUAGUAAGAAGGUGGACCGCGGU [Eternabot solution 31] (Eterna round: R96, puzzle: Same State NG 3) |  |  |  | 109 | 84.4 | 143 |
| UAGAACAAGCUUUUUGCCCGUCUUAUAUAACAUGAGGAUCACCCAUGUAAGGUGAAAGUUAGAGAGUGGAGGAAGAA [JR_SHM208A_Sub053] (puzzle: Sensor for hsa-mir-208a) | 95.3 | 272 | 123 |  |  |  |
| AUAUGAGAAGCAGGAUAUGUGAAAAAAAAACAUACAGAAGGGUUUAUGGGACAACAUGAGGAUCACCCAUGUUCUCUGUGAUGA [AK SSNG1-V2-1.1] (Eterna round: R96, puzzle: Same State NG 1) |  |  |  |  | 59.2 |  |
| GGCAUACAUGAGGAUCACCCAUGUUCAACCUAGAUAGGAUAUGGGCCUCUUGUAUUAGGCCCAGAAGGAUCUGUAA [Regea] (puzzle: Same State 1) |  | 86.4 |  |  |  |  |
| GGUAAACAUGAGGAUCACCCAUGUAAUAAUAUGGGAGGAUAUGGGAAUUAAUUAAUUAAACCAGAAGGCCUAAUUG [Mat - Same State 1 - D85] (Eterna round: R96, puzzle: Same State 1) |  |  |  | 32 | 104 | 135 |
| CUGUAUCGCGGAGGAUAUGGGCUGAGACCAGGGCAACCCUGGUCAACAUGAGGAUCACCCAUGUCCCAGAAGGCCGCAAUGCUA [Esatanla] (Eterna round: R96, puzzle: Same State NG 2) |  |  |  | 34.7 | 128 | 137 |
| ACAUGAGAGAUAGGAUAUUUUGUACCUACAUGUGACAUGAGGAUCACCCAUGUGGUAAGUAUGAGAAAGAAGGAUCAGAUAUGU [Equivalance 52 - Jieux - Same State NG 2] (Eterna round: R96, puzzle: Same State NG 2) |  |  |  | 26.3 | 63.7 | 79.8 |
| UGUCCAGCCUGAGCUGGACAAAAGCAUGUACAUGAGGAUCACCCAUGUUCAUGUACAAGCUUUUUGCUCGUCUUACU [salish99_208a_r3_081] (puzzle: Sensor for hsa-mir-208a) | 360 | 14.1 | 471 |  |  |  |
| AGUCCAGCCUGAGCUGGACAGAAGCAUGUACAUGAGGAUCACCCAUGUUCAUGUACAAGCUUUUUGCUCGUCUUAAA [Zipper 52 - 3] (puzzle: Sensor for hsa-mir-208a) | 480 | 14.2 | 436 |  |  |  |
| GGUCCAGCCUGAGCUGGACAAAAGCGUGUACAUGAGGAUCACCCAUGUCAUGUACAAGCUUUUUGCUCGUCUUAAAA [JL mod - D87 - 6] (puzzle: Sensor for hsa-mir-208a) | 80.2 | 18.8 | 94.9 |  |  |  |
| CCAAAGUACAAUUUAGAUCUACAUGAGGAUCACCCAUGUACUGAGGAUAUCAGCUCGAAUAGAGCUGAGAAGGCAGAAUUAAUU [SSNG3/4-A1] (Eterna round: R96, puzzle: Same State NG 3) |  |  |  | 155 | 155 | 317 |
| GGAGGACAUGAGGAUCACCCAUGUAAAUGGGCGCUAGGAUAUGCGAGAGGGUGGAGAGGAGCAGAAGGAGUGGAUA [JR_SS1_Sub039] (puzzle: Same State 1) | 105 | 180 | 207 |  |  |  |
| AUUAUUUAUGCAGGAUAUGAUUAACAUGAGGAUCACCCAUGUGGUGUUGUGAGUAAGGAGAGUGAUCAGAAGGGCAUUUAUUUU [JMF's solution 47] (Eterna round: R96, puzzle: Same State NG 2) |  |  |  | 926 | 559 | 669 |
| UUAAUGAUGAAAGGAUAUACAUGAGGAAUUCUCGUAGAAGGUUCAUGACAUGAGGAUCACCCAUGUAUCGCUCAGAAGAGCGUA [Mat - Same State NG 1 - JL mod - D29] (Eterna round: R96, puzzle: Same State NG 1) |  |  |  | 47.4 | 36 | 85.4 |
| AAUUAAUUAAUUAAUAUACAUGAGGAUCACCCAUGUAAGAUCAAGGAUAUCAGCUCGUGUAGAGCUGAGAAGGUGAUCACAUGU [SSNG3/16-A4] (Eterna round: R96, puzzle: Same State NG 3) |  |  |  | 345 | 92.5 | 166 |
| UUCUCUUUUUAGAGACAAGCUUUUUGAUCACAUGAGGAUCACCCAUGUCUCGUCUUAUGAUCUACUUCGGUAGAUCU [BA Sensor hsa-mir-208a - 2 - 5] (puzzle: Sensor for hsa-mir-208a) | 155 | 13.9 | 144 |  |  |  |
| GAGUGACGAUUAGGAUAUAUAGUGAUAAUGAUAAUAGAAGGAAUUGACAUGAGGAUCACCCAUGUAGGACUAAUCCAGAGAGAG [Parity 28 - Jieux - Same State NG 1] (Eterna round: R96, puzzle: Same State NG 1) |  |  |  |  | 44.9 |  |
| GGAGCCGGCACCGAGGAUAUUCAUAUUAAAACAUGAGGAUCACCCAUGUGGGCCAGAAGGCCUUGGGAGAAGGCGGAUCGGCUCG [Xeonanis - 1] (puzzle: Same State 2) | 15.6 | 216 | 425 |  |  |  |
| CGUAGGUAGCUGGAGGAUAUUCGAGUGGUAACAUGAGGAUCACCCAUGUGGAGUUAGUUACAUGAGGAGAAGGCUAGCUGCCUGC [JL-ss2-3.17 JL mod] (puzzle: Same State 2) | 36.7 | 61 | 74.5 |  |  |  |
| GAAGAACAUGAGGAUCACCCAUGUAAGCGGAAGCUAGGAUAUGCGGGAAAGAAGAGAGAAGCAGAAGGAGUAGGAA [JR_SS1_Sub029] (puzzle: Same State 1) | 29.6 | 34.4 | 48.8 |  |  |  |
| GUGGUCUGACAUGAGGAUCACCCAUGUGGAAUAAAUACGGGUUAGGAUAUCUUGAGGAUCACCCAAGAGAAGGGAUGGAUGGUC (Eterna round: R96, puzzle: Same State NG 3) |  |  |  |  | 71 |  |
| GCUGCAAAGGCAGGAUAUGGGUUCAGAGCGGAAGUGCGCUUUGACACAUGAGGAUCACCCAUGUCCCAGAAGGGCCCAAGCGGC [Ateanso] (Eterna round: R96, puzzle: Same State NG 2) |  |  |  | 21.2 | 120 | 178 |
| GGUCCAGCCUGAGCUGGACAAAAGCAUGUACAUGAGGAUCACCCAUGUCAUGUACAAGCUUUUUGCUCGUCUUAAGA [Mat - hsa-mir-208a - 88] (puzzle: Sensor for hsa-mir-208a) | 1060 | 17.7 | 1020 |  |  |  |
